Data reported in the nanobody polyreactivity screen of Harvey et al. (2022).

Assay: yeast display, Sf9 membrane polyspecificity reagent, FACS + sequencing; frameworks hold sequencing errors
Outline: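 Nanobodies came from a synthetic yeast display library in Saccharomyces cerevisiae BJ5465, induced with galactose for 36–48 hours and stained for 1 hour at 4 °C with 10% biotinylated, detergent-solubilized Sf9 membrane reagent. Cells were enriched on streptavidin microbeads and then FACS-sorted, with low and high (top ~1%) gates set on anti-HA fluorescence for expression and streptavidin fluorescence for reagent binding. Each polyreactivity label reflects the gate a clone came from. Genes were amplified by colony PCR, sequenced by MiSeq 2 × 250 and filtered by CDR length.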

Sequence	polyreactivity (PSR sort gate)
QVQLVESGGGLVQAGGSLRLSCAASGSTFSLYMGWYRQAPGKERELVAAITYSGGRTYYADSVKGRFTITLDNAKNTFYLQMNSVNPEDTAVYYCATVFNDLTVYEDWSRFDYWGQGTQVTVSS	low polyreactivity
QVQLVESGGGLVQAGGSLRLSCAASGRTFGYNAMGWYRQAPGKESELVAVISRGSRTYYADSVKGRFTISRDNAKNTVYLQMNSLKPEDTAVYYCAADYEYSGYGYWGQGTQVTVSS	high polyreactivity
QVQLVESGGGLVQAGGSLRLSCAASGFIFVPNAMGWYRQAPGNERELVAAIRSSGGTTYYADSVKGRFTISRDNAKNTVYLQMNSLKPEDTAVYYCAAKYTSRLNSGYSNYYWGQGTQVTVSW	high polyreactivity
QVQLVESGGGLVQAGGSLRLSCAASGITFWTYAMGWYRQAPGKERELVARISKSGARTFYADSVKGRFTLSRDNAKNTVYLQMNSLKPEDTAVYYCAADFRSNYDYWGQGTQVTVSS	high polyreactivity
QVQLVESGGGLVQAGASLRLSCAASGRIYIYAMGWYRQAPGKEREMVAAITGGASTNYADSVKGRFTISRDNAKNTVYLQLISLKPEDTAVYYCNAVAYVYGSFRRRPMGYWGQGTQVTVSS	high polyreactivity
QVQHVESGGGLVQPGGSHRLSCAASGSTFQIYAMRWYRQAPGKVRELVAAITSSSSTNYADSVKGRFTISRDNAKNTDYLQMNSLKPEDPAVYYCAADVSRRCNWYDYWGQGTQVTVSS	low polyreactivity
QVQLVESGGGLVQAGGSLRLSCAASGRTFGGYAMGWYRQAPGKERELVAAINYSGGTTYYADSVKGRFTISRDNAKNTVYLQMNSLKPEDTAVYYCAASDCYGLFYGGPTWWKGHDYWGQGTQVTVSS	high polyreactivity
QDQLVESGGGLVQAGGSLRLSCAASGRILINNAMVWYRQAPGKERELVARITRGGRTNYADSVNGRFTISRDNPKNTDYFQMYCPKPVDTAVYDCNAEYVTPYYYGFGAKRDYWGQGTQVTVSS	low polyreactivity
QVQLVESGGGLVQAGGSLRLSCAASGSTFGIYAMGWYRQAPGKERELVAAISRSGDSTYYADSVKGRFTISRDNAKNTVYLQMNSLKPEDTAVYYCAADSFRLRYWAVTTHRVQYDYWGQGTQVTVSS	low polyreactivity
QVQLVESGGGLVQAGGSLRLCCAASGIIFDGYAMGWYRQAPGKERELVAGITIGDITYYADSVKGRFTISRDNAKNTVYLQMTSLKPEDTAVYYCAADSYYYQTAYDYWGQGTQVTVSS	low polyreactivity
QVQLVESGGGLVQAGGSLRLSCAASRSIFYDYVMGWYRQAPGKEREFVAAISWGGDSTYYADSVKGRFTISRDNAKNTVYLQMISLKPEDTAVYYCNADYPWSVVGYDYWGQGTQVTVSS	low polyreactivity
QVQLVESGGGLVQAGGSLRLSCAASGFIFQGNAKGWYRQAPGKERELVAAITRGGGRTYYADSVKGRFTISRDNSKNTVYLQMNSLKPEDSAVNYCNAVGRSKYDYWGQGTQVTVSW	high polyreactivity
QVQLVETGGGLVQAGGSLRLSCAAYGFTFEYNAMGWYRQAPGKERELVAAITTTGSTYYADSVKGRFTISRDNAKNTVYLQMNSLKPEDTAVYYCAADPVWRGYSYQFDYWGQGTQVTVSS	low polyreactivity
QVQLVESGGGLVQAGGSLRLSCAASGSTFGGNAMGWYRQAPGKEREFVAAISYSGGSTYYADSVKGRFTISRDNAKNTVYLQMNSLKPEDTAVYYCAATGEPPVFRNGYWGQGTQVTVSS	low polyreactivity
QVQLVESGGGLVQAGGSLRLSCAASGSTFGYYSMGWYRQAPGKERELVAAIRYSGGTTYYADSVKGRYTISRDNAKNTVYLQMNSLKPEDTAVYYCAAVYTSGYYYWGQGTQVTVSS	high polyreactivity
QVQLVESGGGLVQAGGSLRLSCAASGRTIYYNAIGRYIQAPVKEREFVATITCSGGSTYADSVKGRFTISRDNAKNTVYLQMNSLKPEDTAVYYCNADFSYTSEDQRALFTNVYYWGQGTQVTVSS	low polyreactivity
HVQLVESGGGLFQAGGSLRLCCAASGSISGLYAMGWYRQAPGKERELVAAITLRDGTTSYADSVKGRFTISRDNAKITVYLQMNSLKPEDTDVYYCAAVDRDSKCSVPTLDHWGQGTQVTVSS	low polyreactivity
QVQLVESGGGLVQAGGSLRLSCAASGFTFWKYAMGWYRQAPGKERELVAAISVSGGRTYYADSVKGRFTISRDNAKNTVYLQMNSLKPEDTAVYYCNATPWRPYVGGEYWGQGTQVTVSS	high polyreactivity
QVQLLESGGGLVQAGGSLRLSCAASGGTFRPYAMGWYRQAPGKERELVAAISFTGSTYYADSVKGRFTISRDNAKNTVYLQMNSLKPEDTAVYYCAKDFWYPPRFDYWGQGTQVTVSS	low polyreactivity
QVQLVESGGGLVQAGGSLRLSCAASGSTFPYNTMGWYRQAHGKEREFVAAITGDGGTTYYADSVKGRFTISRDNAKNTVYLQMNSLKPEDTAVYYCAVPYPAEGYGGDYWGQGTQGTVSS	low polyreactivity
QVQLVESGGGLVQAGGSLRLSCAASGRIIQGYAIGWYRQAPGKERELVDAIRSGSGSTYYADSVKGRFTISRDNAKNTVYLQMNSLKPEDTAVYYCAADRYYWGQGTQVTVSS	low polyreactivity
QVQLVESGGGLVQAGGSLRLSCAASGSIIRNAMGWYRQAPGKERELVAAINWSGGSTYYADSVKGRFTISRDNAKNTVYLQMNSLKPEDTAVYYCNKVRGTVHATRRNGDYWGQGTQVTVSS	high polyreactivity

Sequence	polyreactivity (PSR sort gate)
QVQLVESGGGLVQAGGSLRLSCAASGSIFNPYTMGWYRQAPGKERELVAAISASGGSTYYADSVKGRFTISRDNAKYTVYLQMNCLKPEDTAVYYCNVYRITRHSYNFGFDYWGQGTQVTVSS	low polyreactivity
QVQLVESGGGLVQAGGSLRLSCAASGLTFYYNAMGWYRQAPGKERELVAAISFSGGRTYYADSVKGRFTISRDNAKNTVYLQMNSLKPEDTAVYYCAADWVRNWYTSGSWGQGTQVTVSS	high polyreactivity
QVQLVESGGGLVQAGGSLRLSCAASGITFSYNAMGWDRQAPGKERELVAAISSNSDSTYYADSVKGRFTISRDNAKNTVYLQMNSLKPEDTAVYYCAADTPDAPDYSGFYYWGQGTQVTVSS	low polyreactivity
QVQLVESGGGLVQAGGSLRLSCAASGRIFHANAMGWYRQAPGKERELVAGISRNGGRTYYADSVKGRFTISRDNAKNTVYLQMNSLKPEDTAVYYCAARVWGSSQYYYWGQGTQVTVSS	high polyreactivity
QVQLVESGGGLVQAGGSLRLSCAASGRTFFKYAMGWYRQAPGKERELVAAITWGGDRTFYADSVKGRFTISRDNAKNTVYLQMNSMKADETAVYYCAAEVLPNVYVYQSARGFYYWGQGTQVTVSS	high polyreactivity
QVQLVESGGGLVQAGGSLRLSCAASGRIFDYYAMGWYRQAPGKERELVAAITSGGTTTYYADSVKGRFTNSRDNAKNTVYLQLNSLKPEDTAVYFCAKYPYHIYHTDGDYWGQGTQVTVSS	low polyreactivity
QVQLVESGGGLVQAGGSLSLSCAASGGIFFIYTMGWKRQAPGKEREMVAAITSTGDTKYADSVKGRFTISRDNAKTTVYLQMNSLKPEDTAVYYCNKDNGTRGKGYDYWGQGTQVTVSS	low polyreactivity
QVQLVESGGGLVQAGGSLRLSCAASGAIFELNAMGWYRQAPGKERELVAAIRWRTGRTYYADSVKGRFTISRDNAKNTVYLQMNSLKPEDTAVYYCAAPVRSGVRYTLDYWGQGTQVTVSS	high polyreactivity
QVQLVESGGGLVQAGGSLRLSCAASGRTFYLYAMGWYRQAPGKEREFVAAISKRGGSTYYADSVKGRFTISRDNAKNTVYLQMNSLKPEDTAVYYCAAEVFRYRLNQTPTYRGDYWGQGTQVTVSS	high polyreactivity
QVQLVESGGGLVQAGGSLRLSCAASGIIFYYYAMGWYRQAPGKERELVAAISKSGGSTYYADSVKGRFTISRDNAKNTVYLQMNRLKPEDTAVYYCAARGPSWLSYNYWGQGTQVTVSS	high polyreactivity
QVQLVESGGGLVQAGGSLRLSCAASGRTFISNAMGWYRQAPVKERELVAAISRSGGSTYYADSVKGRFTISRDNAKNTVYLQMNSLKPEDTAVYYCAATGKQWRTSYDYWGQGTQVTVSS	high polyreactivity
QVQLVESGGGLVQAGGSLRLSCAASGSTFQYYAMGWYRQAPGKERELVAAISDGTNTNYADSVKGRFTISRDNAKNTVYLQMNSLKPEDTAVYYCAARFYSIVKYVGIGTDEYDYWGQGTQVTVSS	low polyreactivity
QVQLVESGGGIVQAGGSLRLSCAASGSTLVKYAMGWYRQAPGKERELVAAISWSGGRTYYADSVKGRFTISRDNAKNTVYLQMNSLKPEDTAVYYCAARRKAVRYDYWGQGTQVTVSS	high polyreactivity
QVQLVESGGGLVQAGGSLRLSCAASGFIFYRKTMGWYRQAPGKERELDAAISVSGGSTNYADSVKGRFTISRDNAKNTVYLQMNSLKPEDTAVYYCAARVRDSLVYGGWDDYWGQGTQVTVSS	high polyreactivity
QVQLVESGGGLVQAGGSLRLSCAASGSIYTNAMGWYRQAPGKERELVAAISKRGGSTNYADSVKGRFTISRDNAKNTVYLQMNSLKPEDTAVYYCNRTGSTGYVQVWRPGDYWGQGTQVTVSS	high polyreactivity
QVQLVESGGGLVQAGGSLRLSCAASGRTFKYYAMGWYRQAPGKERELVATITWSGTSTNYADSVKGRFTISRDNAKNTVYLQMNSLKPEDTAVYYCAARSKRRNYDYWGQGTQVTVSS	high polyreactivity
QVQLVESGGGLVQAGGSLRLSCAASGFTFGHYALGWYRQATGKERELVAAITRSGGNTYYADSVKGRFTISRYNAKNTVYLQMNSLKPEDTAVYYCAARLGWVYYSRSRYGYWGQGTQVTVSS	high polyreactivity
QVLLVESGGGLFQAGGRLRVSCAASGSTLLRYAMGWYRQAPGKERELVAAISGTGSRTYYADSVKGRFTISRDNAKNTVYLKMISLNPEDTAVYYCYACPYRLTEIDYWGQGTPVTVSS	high polyreactivity
QVQLVESGRGLVQAGGSLRLSCAASGRIFGIYAMGWHRQAPGKEMELVATITDGTITNYADSVKGRFTISRDNAKNTVYLQMNSLKPEDTAVYYCAAGTQAHAYVVRPIEMDYWGQGTQVTVSS	low polyreactivity
QVQLVESGGGLVQAGGSLRLSCAASGITFRTNAMGSSRQAPGKERELVAAITTNGGNTYYADSVKGRFTISRDNAKNTVYLQMNSLKPEDTAVYYCNTATYVDSFPDPGDHWGQGTQVTVSS	low polyreactivity
QVQLVESGGGLVQAGGSLRLSSAASGFTFKGNALGWYRQAPGKERELVATITQSAGSTYYADSVKGRFTISRDNAKNTVYLQMNSLKPEDTAVYYCNADPITLYYYSWYNYWGQGTQGTVSS	low polyreactivity
